Reference: the supplement of paper PMC12764529
± gives the half width of the 95% confidence interval.

How the values were obtained:
[1] = folding stability dG unfold from trypsin proteolysis; higher = more stable
Method in brief: (§1)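 Only designs with AlphaFold2 dimer inter-PAE above 15 were retained; each was a mini-protein under 80 residues with no cysteine, in a PA-tagged cDNA display construct. After digestion with trypsin and chymotrypsin and sequencing, K50 was inferred by Bayesian fitting of counts, and unfolding free energy was derived per protease or combined against a sequence-predicted unfolded-state K50 and a shared folded-state K50.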

[2] = folding stability dG unfold from chymotrypsin proteolysis; higher = more stable
Method in brief: as §1

[3] = folding stability dG unfold (combined trypsin and chymotrypsin); higher = more stable
Method in brief: as §1

| Sequence | folding stability dG unfold [1] | folding stability dG unfold [2] | folding stability dG unfold [3] |
| --- | --- | --- | --- |
| SAGGMVEREFTLDGTRITITYVPSEGVILATFPDRTVTVPVPESLKDKSPEEVIELAKEFAKEYLESSAGGS [r16_215_JUSTAS] | 4.14 ± 0.16 kcal/mol | 3.08 ± 0.041 kcal/mol | 3.43 ± 0.058 kcal/mol |
| SALEELLKELAEKLGYPYTVLEIKKEENTYKMVIKLTKEGTPVIVDVEIEFPSSDPNVYKVKIKKIEEPSAG [r14_387_JUSTAS] | 2.8 ± 0.087 kcal/mol | 3.603 ± 0.027 kcal/mol | 3.49 ± 0.072 kcal/mol |
| SAGMVEVLEEKTDPNSDLVTVTLYAPDVPDGFRVVVYPKDGVPIEISIKRGEEVVLKLPANVEKIEFIGSAG [r14_671_JUSTAS] | 2.55 ± 0.083 kcal/mol | 2.41 ± 0.044 kcal/mol | 2.51 ± 0.092 kcal/mol |
| SAMETYEYPVTGDSATFTVPVPPDHIAKVTVHYPSGSTDTVVPPGVTTTFTVPSSNATVTITIYPRSALSAG [r14_882_JUSTAS] | 1.01 ± 0.025 kcal/mol | 1.53 ± 0.11 kcal/mol | 1.34 ± 0.068 kcal/mol |
| SAGGSAGGSEMEVKVTVEPAPAGAPPGAVVRVEVEFEDGFRITVRFTFVDGKLRAEVTEIKPVSAGGSAGGS [r12_1049_TrROS_Hall] | 2.92 ± 0.085 kcal/mol | 3.65 ± 0.061 kcal/mol | 3.37 ± 0.1 kcal/mol |
| SPSTTIPQTITLDTKLPNGKPATPEEVKAIAEEIVKKLEKEKGVKISINVKVTPVDSSGKYKLDITITIIKS [r1_231_JUSTAS] | 2.14 ± 0.047 kcal/mol | 2.81 ± 0.072 kcal/mol | 2.59 ± 0.11 kcal/mol |
| SAGGSAGGSAGIGSKKPVIKKNIEIEPEIKVEGGKGGSKVKIEYKAKIEIKVYIISKNNPSAGGSAGGSAGG [r17_186_TrMRF] | 1.28 ± 0.22 kcal/mol | 2.15 ± 0.13 kcal/mol | 1.98 ± 0.4 kcal/mol |
| SAGGMYKARIEVKNPEEVKKKIKELGLEFEIETRPDGSVDIYFPPEYVDKLIKAFPGEKIEIEPIPDESAGG [r13_261_TrMRF] | 2.94 ± 0.15 kcal/mol | 3.38 ± 0.11 kcal/mol | 3.29 ± 0.14 kcal/mol |
| SAGGSAGGDALKELIKNMPPGEPRKITIPIKYEDGRYYRIDIEIQMNPNNGEWQLDIDIEPYPPSAGGSAGG [r6_545_TrROS] | 0.881 ± 0.089 kcal/mol | 2.46 ± 0.054 kcal/mol | 1.91 ± 0.25 kcal/mol |
| SAGGSAGGSAKPNWVIIEMTIQIPEGDPEEIKEIMEPFGWEITGVDNNYIKVSILMPPGAKISAGGSAGGSA [r18_168_TrROS] | 1.26 ± 0.14 kcal/mol | 1.14 ± 0.043 kcal/mol | 1.26 ± 0.25 kcal/mol |
| SAPLKIDLDIEPIPPGDKVRFNARITYPDGHPIRIPFEIYVPPDEIVIKFPIQDPKNGEPIAPLTFVIKSAG [r14_670_TrROS] | 1.53 ± 0.046 kcal/mol | 1.97 ± 0.2 kcal/mol | 1.67 ± 0.19 kcal/mol |
| SAGGSPPLPLKITKITDTRYERNPDGQGWVKIEIRLPENGKPITIPVQADSPEQAEYAVKEALKKFSAGGSA [r2_248_TrROS] | -0.315 ± 0.16 kcal/mol | -0.424 ± 0.56 kcal/mol | -0.31 ± 0.36 kcal/mol |
| SAGMKTLEKTGSAAKIEEAIAAGKSLEEVFETAGKDGGTSRTLTEPNRTLTFSGETSKPGVATLTTIPESAG [r5_343_JUSTAS] | -0.662 ± 0.55 kcal/mol | 0.279 ± 0.18 kcal/mol | -0.0165 ± 0.15 kcal/mol |
| SAGGSAGGSLLEDIKKALEIIKPPPIPVKVKVKIEYDPEKGELKVEVEFFGIKLKVEGEFKIESAGGSAGGS [r20_230_TrMRF] | 2.07 ± 0.22 kcal/mol | 3.4 ± 0.16 kcal/mol | 3.04 ± 0.26 kcal/mol |
| SAGGSAGGSAGMVIEVGGKKVTIEKNEDGSLKITVTDKNGKKKEITIPGMSLEEILKALKSAGGSAGGSAGG [r11_934_TrROS_Hall] | 3.23 ± 0.076 kcal/mol | 2.57 ± 0.036 kcal/mol | 2.9 ± 0.081 kcal/mol |
| SAGGKIPPGMKLEIEDINIEFYNNGWIKITVKMTIWAPDGKTMTMTMTIVIPIRPPPPPPNDPENNESAGGS [r8_90_TrROS] | 3.91 ± 0.45 kcal/mol | 4.77 ± 0.24 kcal/mol | 4.29 ± 0.44 kcal/mol |
| SAGGSAMTVTLIVGDKPITIPLTASLSDIKAALEEHPDVPVYIILPNGKRIEMKVSDLIKMMEKAGSAGGSA [r15_36_TrMRF] | 2.99 ± 0.058 kcal/mol | 3.35 ± 0.099 kcal/mol | 3.16 ± 0.1 kcal/mol |
| SAGGMPVVKVTLRVELPETGETVDVTLYVDPSVPEEYLERLVRRVAEEVARLLRLPPPPVPPRPDELSAGGS [r16_191_TrMRF] | 3.29 ± 0.12 kcal/mol | 3.64 ± 0.057 kcal/mol | 3.52 ± 0.095 kcal/mol |
| SNPWVEITIYFPMRPDPNGKMQPLSPSELLEELLKQGFPIKDIDIDEVTDNYIPITIRIDAKDGKIEIEWSA [r9_225_TrROS] | 2.12 ± 0.21 kcal/mol | 3.18 ± 0.13 kcal/mol | 2.85 ± 0.19 kcal/mol |
| SAGGMSITITTNAPKEVLLRFIKDLAEEIGVEVDVEVTVEPLEDGPIVTAHVHIDPKEPEVPLEELFSAGGS [r16_262_TrMRF] | 0.75 ± 0.018 kcal/mol | 0.384 ± 0.074 kcal/mol | 0.642 ± 0.085 kcal/mol |
| SGVEYIEIPLEVTLDAPLEKAFEFLEDLAEEFGLGDIEVLEVEVDPETGKVRVKALARIAIAPPPPPSLESA [r9_918_TrMRF] | 2.83 ± 0.044 kcal/mol | 3.53 ± 0.11 kcal/mol | 3.19 ± 0.17 kcal/mol |

| Sequence | folding stability dG unfold [1] | folding stability dG unfold [2] | folding stability dG unfold [3] |
| --- | --- | --- | --- |
| SAGGSAGGSANIDIKVEENPGNGYRKVEVTMTVDDLRELFGNEPIPPGEERQIKMTIYLPIPSAGGSAGGSA [r18_327_TrROS] | 0.772 ± 0.13 kcal/mol | 1.37 ± 0.095 kcal/mol | 1.21 ± 0.17 kcal/mol |
| SAPSPSVPLDPVTTETVLVKDPEKGEEITLEILTDANSDEVLVRITYPDGSEVVLRLKKEEVEKVIEALSAG [r14_240_JUSTAS] | 4 ± 0.37 kcal/mol | 3.08 ± 0.11 kcal/mol | 3.41 ± 0.12 kcal/mol |
| SAGGMKFELVARFDSKEAAEKAVEELVRELFPDFDVEVEVEVIEDPETGTFLAIATITLPLPGPEDLSAGGS [r8_17_TrMRF] | 4.31 ± 0.21 kcal/mol | 4.18 ± 0.19 kcal/mol | 4.19 ± 0.2 kcal/mol |
| SAGGSAGGMPPVSLPETPVTITDPATGKPRLVTVLAAAPDGTLTVRFPDGSEVTVAGEPLLELESAGGSAGG [r6_435_JUSTAS] | 0.446 ± 0.042 kcal/mol | 1.05 ± 0.019 kcal/mol | 0.878 ± 0.051 kcal/mol |
| SAGGSAIDPRLLKLPKVKVEILSVEPVTGEDDKPFFVAKVKTDLEPGFYAYIILDPETGKIVKVFDSAGGSA [r15_66_TrMRF] | 1.19 ± 0.038 kcal/mol | 1.57 ± 0.093 kcal/mol | 1.4 ± 0.072 kcal/mol |
| SAGGSAGGSAGMTVEEFTIPEVGGRVIRTTVEEPTEDGVVVRRRYLILVNPDGTVERRPESAGGSAGGSAGG [r11_911_JUSTAS] | -0.0463 ± 0.17 kcal/mol | 0.13 ± 0.17 kcal/mol | 0.111 ± 0.092 kcal/mol |
| SAGGSAGGNKSYTVIIRFPMKRKEDPDGEDKKPRPVTIEYTVKSPEDANELKNKLKDNGAEIVPSAGGSAGG [r6_141_TrROS] | 0.263 ± 0.15 kcal/mol | 0.698 ± 0.12 kcal/mol | 0.531 ± 0.12 kcal/mol |
| SAGSSSVTLFPEYTITTTTLPDGSRSVTINFTNPEEAKKLFEENPEIKELIEKFKKEGWDVKINAKNPSSAG [r14_873_JUSTAS] | 2.98 ± 0.21 kcal/mol | 3.95 ± 0.17 kcal/mol | 3.67 ± 0.22 kcal/mol |
| SAGIEEEVRKLFPDRELEVKVKEKRLKAPNGVPVTLYEVTVTFPDGSRYKLTLTKTPNSVTLSVTPLDASAG [r14_28_JUSTAS] | 2.73 ± 0.2 kcal/mol | 3.34 ± 0.035 kcal/mol | 3.18 ± 0.17 kcal/mol |
| SAGGSAGGSEVKTITLTIKNKETNKEIKIEVQVFKNEDGELVFIAKAEITYNGKKYTFTVLLPSAGGSAGGS [r12_619_TrROS_Hall] | 3.82 ± 0.27 kcal/mol | 4.38 ± 0.16 kcal/mol | 4.43 ± 0.31 kcal/mol |
| SAGGSAGGSAGGMKITKVEVFERPDGYLVVKMEIELTNENGEKVKLELVFVFKPGEVIESAGGSAGGSAGGS [r10_1183_TrROS_Hall] | 3 ± 0.15 kcal/mol | 4.96 ± 0.2 kcal/mol | 4.72 ± 0.31 kcal/mol |
| SAGGMTLEITFPPNVKKVRVEFDEETNEVKVEVEEVDGELVIRVEVPPGQELSEEELERLKKLLEELSAGGS [r16_359_TrROS_Hall] | 1.34 ± 0.037 kcal/mol | 1.79 ± 0.072 kcal/mol | 1.65 ± 0.083 kcal/mol |
| SAKVYRTKDGKEVKVEKKKVKVKTIEIEIEIEMPKELEEKVKKLAEELAKKLAEELNLPPGAKIKITVRSAG [r14_453_TrROS_Hall] | 2.54 ± 0.06 kcal/mol | 2.04 ± 0.051 kcal/mol | 2.34 ± 0.17 kcal/mol |
| SAGGVIMIPADEILDMIEQNPDEPKTIFARPNNRMVMFTLKIDPDKPDNIEIDNVWRYDPNGKGEHLPSAGG [r13_481_TrROS] | -0.526 ± 0.47 kcal/mol | -0.475 ± 0.31 kcal/mol | -0.365 ± 0.22 kcal/mol |
| SAGGSAGGSAGMLIELTVETSVTTVSTPDATFTVVTLKEPGKPETLGTVVYDPATGSPALSAGGSAGGSAGG [r11_645_JUSTAS] | 0.615 ± 0.036 kcal/mol | -0.959 ± 0.39 kcal/mol | 0.168 ± 0.14 kcal/mol |
| SAGGSAGGSAGEFEPVPVLTLPGLDDREVRVVLFKDPPLVLLEVEGAPYVLPAEELLRLASAGGSAGGSAGG [r11_370_TrMRF] | -0.19 ± 0.09 kcal/mol | 1.26 ± 0.13 kcal/mol | 0.856 ± 0.12 kcal/mol |
| SAGGSAGGSAGERLTADELRKLAEELGLPAEITVERKEDGTYTVTITVDGKTYKIEIKLDSAGGSAGGSAGG [r11_410_TrROS_Hall] | 2.38 ± 0.096 kcal/mol | 3.44 ± 0.1 kcal/mol | 3.16 ± 0.15 kcal/mol |
| SAGGGKTVVLVTHPDGTPTTITFDPEKPVATITYPDGTTETLPVPPDKTIADLAKALPADYTAVFAPASAGG [r13_696_TrMRF] | -0.338 ± 0.13 kcal/mol | 0.696 ± 0.069 kcal/mol | 0.419 ± 0.13 kcal/mol |
| SAGGSGMIKTETTVTITFPGGETVSFPATVTYDPETGKTEVEVNLPEAALAELKERAPDAEVNVLLSAGGSA [r2_409_JUSTAS] | 1.76 ± 0.032 kcal/mol | 0.681 ± 0.014 kcal/mol | 1.29 ± 0.046 kcal/mol |
| SAGGSAGGSAGGTAEEIKEAIEELGYKVEVEVTDDAVKIRLELPNGEKFEFEIPKEALESAGGSAGGSAGGS [r10_1029_TrMRF] | 2.3 ± 0.22 kcal/mol | 1.92 ± 0.11 kcal/mol | 1.99 ± 0.16 kcal/mol |
| SAGKKSIVAPYEELKKIIELLPSGKKYKVIASDPNGKKIEGTIEVKGGKAKIEPGPKNTFKDLLIVITGSAG [r5_85_TrMRF] | 0.248 ± 0.061 kcal/mol | 0.3 ± 0.13 kcal/mol | 0.248 ± 0.12 kcal/mol |
